Measurements published in patent US20220228157A1, “GENE EDITING IN DIVERSE BACTERIA” (priority 2019, published 2022).

Tests used:
E. coli [1] = experiment: Fifteen cycles of MAGE with pool of 15 oligos, editing efficiency by NGS; type: cell-based, Escherichia coli; details: 15 separate mutations, one week
Description: E. coli populations expressing either an efficient SSAP (SEQ ID NO: 157), an efficient SSAP/SSB pair (SEQ ID NO: 157/SEQ ID NO: 384), or the widely-used Redβ were taken through fifteen cycles of MAGE and transformed each cycle with a 10 μM pool comprising 15 unique oligos. Editing efficiency at each targeted locus was measured by NGS and averaged (FIG. 3).

E. coli [2] = experiment: Editing efficiency by NGS, non-coding mismatch at a non-essential gene; type: cell-based, Escherichia coli; details: silent mismatch MAGE oligo, SEER plasmid system
Description: Top-performing SSAPs and SSAP/SSB pairs from experiments in E. coli, L. lactis, and M. smegmatis are shown in FIG. 2A, FIG. 2B and FIG. 2C, respectively. Bars in red are the proteins that had previously been reported in the literature. The proteins listed were found after ten rounds of selection for protein variants that enabled the introduction of an oligonucleotide that conferred a genomic edit that provided antibiotic resistance. Unbiased editing efficiency was tested in each case by introducing a non-coding base change at a non-essential gene and measuring the frequency of incorporation via next generation sequencing.
Their recombineering efficiency was tested against Redβ expressed off of its wild-type codons on the same plasmid system used for the SEER selections. […]
The efficiency of each SSAP or SSAP/SSB pair was measured by expressing them off of their host-specific plasmid in the naïve parent strain and running a recombineering cycle with an oligo that confers a 4-nucleotide non-coding mismatch in a non-essential gene. The allele was then amplified by PCR and editing efficiency was measured by next-generation sequencing.
To measure single locus editing, a recombineering cycle was run with an oligo that confers a single base pair non-coding mismatch in a non-essential gene. The allele was then amplified by PCR and editing efficiency was measured by NGS as described above. […]

Molecule	Editing efficiency, averaged over targeted loci (E. coli [1]) [%]	Efficiency of recombineering at ynfF by NGS (E. coli [2])
Redβ: Redβ SSAP from Enterobacteria phage λ, SEQ ID NO: 474 (protein, Bacteriophage Lambda) MSTALATLAGKLAERVGMDSVDPQELITTLRQTAFKCDASDAQFIALLIVANQYGLNPWTKEIYAFPDKQNGIVPVVGVDGWSRIINENQQFDGMDFEQDNESCTCRIYRKDRNHPICVTEWMDECRREPFKTREGREITGPWQSHPKRMLRHKAMIQCARLAFGFAGIYDKDEAERIVENTAYTAERQPERDITPVNDETMQEINTLLIALDKTWDDDLLPLCSQIFRRDIRASSELTQAEAVKALGFLKQKATEQKVAA	~20	–
PapRecT: SSAP from Pseudomonas aeruginosa, SEQ ID NO: 24, UniParc ID: UPI0001E9E6CB (protein, listed as Pseudomonas aeruginosa) MGTALTPLLTKFATRYEMGTTPEEVANTLKQTCFKGQVNDSQMVALLIVADQYKLNPFTKELYAFPDKNNGIVPVVGVDGWARIINENPQFDGMEFSMDQQGTECTCKIYRKDRSHAISATEYMAECKRNTQPWQSHPRRMLRHKAMIQCARLAFGFAGIYDQDEAERIVERDVTPAEQYEDVSEAICLIKDSPTMEDLQAAFSNAWKAYKTKGARDQLTAAKDQRKKELLDAPIDVEFEETGDDRAA	–	31%±2%
